# Publication PMC4681132 (Nature, 2015)
# T1: RNA polymerase III subunit C128 (S. cerevisiae, UniProt P22276 1-1149)
# T1 sequence: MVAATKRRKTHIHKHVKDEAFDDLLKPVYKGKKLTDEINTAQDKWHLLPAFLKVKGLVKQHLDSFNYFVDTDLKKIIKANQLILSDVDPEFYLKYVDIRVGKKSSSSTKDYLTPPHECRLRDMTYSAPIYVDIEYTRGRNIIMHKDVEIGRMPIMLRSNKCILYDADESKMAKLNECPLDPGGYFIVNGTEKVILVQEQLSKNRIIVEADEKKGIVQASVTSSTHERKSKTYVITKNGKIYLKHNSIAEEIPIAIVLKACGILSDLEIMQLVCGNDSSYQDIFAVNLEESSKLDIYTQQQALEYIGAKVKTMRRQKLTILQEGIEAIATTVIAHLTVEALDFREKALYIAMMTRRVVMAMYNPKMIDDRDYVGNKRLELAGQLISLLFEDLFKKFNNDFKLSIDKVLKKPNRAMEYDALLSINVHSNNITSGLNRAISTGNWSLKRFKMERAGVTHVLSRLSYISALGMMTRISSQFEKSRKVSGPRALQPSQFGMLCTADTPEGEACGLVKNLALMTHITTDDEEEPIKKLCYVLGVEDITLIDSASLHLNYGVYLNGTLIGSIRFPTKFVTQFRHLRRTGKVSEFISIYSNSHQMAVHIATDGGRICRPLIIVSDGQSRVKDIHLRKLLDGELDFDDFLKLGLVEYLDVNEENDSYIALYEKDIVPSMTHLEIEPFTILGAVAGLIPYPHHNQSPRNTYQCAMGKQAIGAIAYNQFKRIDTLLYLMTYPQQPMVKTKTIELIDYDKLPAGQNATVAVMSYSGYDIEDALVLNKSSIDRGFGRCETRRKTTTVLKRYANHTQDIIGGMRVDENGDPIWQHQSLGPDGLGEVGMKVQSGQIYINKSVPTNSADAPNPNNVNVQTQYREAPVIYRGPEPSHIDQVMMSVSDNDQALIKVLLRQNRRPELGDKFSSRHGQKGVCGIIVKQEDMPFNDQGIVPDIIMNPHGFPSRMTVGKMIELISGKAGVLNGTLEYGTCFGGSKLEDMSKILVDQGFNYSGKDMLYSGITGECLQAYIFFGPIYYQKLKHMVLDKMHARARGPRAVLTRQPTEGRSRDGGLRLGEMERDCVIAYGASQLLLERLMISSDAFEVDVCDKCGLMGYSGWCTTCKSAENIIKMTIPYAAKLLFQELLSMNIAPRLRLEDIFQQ
# T2: RNA polymerase III subunit C160 (S. cerevisiae, UniProt P04051 1-1460)
# T2 sequence: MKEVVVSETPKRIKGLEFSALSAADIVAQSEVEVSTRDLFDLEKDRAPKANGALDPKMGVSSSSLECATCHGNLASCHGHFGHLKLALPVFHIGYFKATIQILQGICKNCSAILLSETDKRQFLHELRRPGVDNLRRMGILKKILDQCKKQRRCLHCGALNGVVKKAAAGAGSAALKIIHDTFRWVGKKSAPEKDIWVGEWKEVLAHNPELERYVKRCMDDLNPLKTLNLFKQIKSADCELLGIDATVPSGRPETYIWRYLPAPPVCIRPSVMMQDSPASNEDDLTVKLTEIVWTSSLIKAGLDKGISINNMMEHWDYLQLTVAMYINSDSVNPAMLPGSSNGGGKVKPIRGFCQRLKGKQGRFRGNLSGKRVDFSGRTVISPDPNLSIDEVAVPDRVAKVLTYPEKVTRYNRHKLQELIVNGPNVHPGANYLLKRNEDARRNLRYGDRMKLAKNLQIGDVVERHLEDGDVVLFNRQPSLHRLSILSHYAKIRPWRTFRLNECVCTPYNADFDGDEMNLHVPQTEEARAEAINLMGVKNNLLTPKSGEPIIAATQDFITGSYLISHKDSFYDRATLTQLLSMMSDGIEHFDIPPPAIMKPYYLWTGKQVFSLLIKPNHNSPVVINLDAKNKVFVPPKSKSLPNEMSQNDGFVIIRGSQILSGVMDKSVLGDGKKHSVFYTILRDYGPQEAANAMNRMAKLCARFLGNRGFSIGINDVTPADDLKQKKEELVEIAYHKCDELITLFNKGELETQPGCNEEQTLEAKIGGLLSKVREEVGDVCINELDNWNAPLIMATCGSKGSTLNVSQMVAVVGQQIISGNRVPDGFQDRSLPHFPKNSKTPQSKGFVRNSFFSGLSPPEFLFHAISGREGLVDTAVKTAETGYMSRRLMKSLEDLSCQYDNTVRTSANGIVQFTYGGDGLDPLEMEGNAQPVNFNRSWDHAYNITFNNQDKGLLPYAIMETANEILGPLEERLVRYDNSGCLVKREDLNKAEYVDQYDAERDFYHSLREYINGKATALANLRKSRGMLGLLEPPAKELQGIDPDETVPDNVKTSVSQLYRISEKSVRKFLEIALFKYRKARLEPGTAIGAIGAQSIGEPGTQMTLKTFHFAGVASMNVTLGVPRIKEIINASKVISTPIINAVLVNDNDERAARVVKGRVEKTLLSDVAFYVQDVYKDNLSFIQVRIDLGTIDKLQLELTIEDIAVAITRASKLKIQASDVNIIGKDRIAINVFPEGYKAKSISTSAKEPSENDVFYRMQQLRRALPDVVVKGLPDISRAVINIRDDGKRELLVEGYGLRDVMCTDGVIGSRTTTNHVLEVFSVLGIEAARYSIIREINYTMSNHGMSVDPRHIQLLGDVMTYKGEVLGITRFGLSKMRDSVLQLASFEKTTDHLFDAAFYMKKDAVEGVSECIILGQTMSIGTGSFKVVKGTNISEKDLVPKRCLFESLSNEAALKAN
# T3: RNA polymerase III stalk subunit C25 (S. cerevisiae, UniProt P35718 1-212)
# T3 sequence: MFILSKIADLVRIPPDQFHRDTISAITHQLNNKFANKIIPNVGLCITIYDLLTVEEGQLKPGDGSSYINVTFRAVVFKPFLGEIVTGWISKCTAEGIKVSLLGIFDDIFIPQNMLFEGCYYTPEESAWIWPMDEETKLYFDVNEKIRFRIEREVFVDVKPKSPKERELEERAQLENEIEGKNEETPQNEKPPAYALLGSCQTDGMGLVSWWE
# T4: RNA polymerase III subunit C53 (S. cerevisiae, UniProt P25441 1-422)
# T4 sequence: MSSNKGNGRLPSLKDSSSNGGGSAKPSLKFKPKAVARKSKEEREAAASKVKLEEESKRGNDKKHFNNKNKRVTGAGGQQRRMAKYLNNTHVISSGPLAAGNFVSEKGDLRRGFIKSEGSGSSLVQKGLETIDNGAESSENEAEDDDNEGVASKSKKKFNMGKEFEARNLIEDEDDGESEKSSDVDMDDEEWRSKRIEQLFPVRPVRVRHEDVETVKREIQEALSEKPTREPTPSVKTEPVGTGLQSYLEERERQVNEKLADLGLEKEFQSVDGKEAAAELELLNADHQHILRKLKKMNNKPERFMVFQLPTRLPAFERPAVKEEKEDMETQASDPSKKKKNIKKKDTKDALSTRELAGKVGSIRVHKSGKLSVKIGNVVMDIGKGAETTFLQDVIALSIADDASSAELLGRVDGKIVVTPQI
# B1: RNA polymerase III subunit C11 (natural protein, S. cerevisiae)
# chain: MLSFCPSCNNMLLITSGDSGVYTLACRSCPYEFPIEGIEIYDRKKLPRKEVDDVLGGGWDNVDQTKTQCPNYDTCGGESAYFFQLQIRSADEPMTTFYKCVNCGHRWKEN
# B2: RNA polymerase III stalk subunit C17 (natural protein, S. cerevisiae)
# chain: MKVLEERNAFLSDYEVLKFLTDLEKKHLWDQKSLAALKKSRSKGKQNRPYNHPELQGITRNVVNYLSINKNFINQEDEGEERESSGAKDAEKSGISKMSDESFAELMTKLNSFKLFKAEKLQIVNQLPANMVHLYSIVEECDARFDEKTIEEMLEIISGYA
# B3: RNA polymerase III subunit C37 (natural protein, S. cerevisiae)
# chain: MSIDNKLFVTEEDEEDRTQDRADVEDESNDIDMIADENGTNSAIANEQEEKSEEVKAEDDTGEEEEDDPVIEEFPLKISGEEESLHVFQYANRPRLVGRKPAEHPFISAARYKPKSHLWEIDIPLDEQAFYNKDKAESEWNGVNVQTLKGVGVENNGQYAAFVKDMQVYLVPIERVAQLKPFFKYIDDANVTRKQEDARRNPNPSSQRAQVVTMSVKSVNDPSQNRLTGSLLAHKVADEEANIELTWAEGTFEQFKDTIVKEAEDKTLVALEKQEDYIDNLV
# What was measured:
# Assay in all cases: cryo-EM structure
# [1] = target: T1, RNA polymerase III subunit C128
# [2] = target: B3
# [3] = target: T2, RNA polymerase III subunit C160
# [4] = target: T3, RNA polymerase III stalk subunit C25
# [5] = target: T4, RNA polymerase III subunit C53
Binder,binding result [1],binding result [2],binding result [3],binding result [4],binding result [5]
B1,binds,binds,binds,,
B2,,,binds,binds,
B3,binds,,,,binds
